Test results taken from patent publication US20230075753A1 (UCB, published 2023).

How the values were obtained:
Active human KLK5 [1] = target: T1, Active human KLK5 (human, UniProt Q9Y337 67-293); assay: SPR; LEKTI D5 Fab fusion immobilised, human KLK5 injected; reference row, same values as Table 4A
T1 construct: glycosylated; also called Hu KLK5; KLK5 analyte (prepared in house)
Procedure: (§1) Kinetic measurements for the binding of LEKTI D5 Fab fusion protein to human KLK5 were obtained using a Biacore T200 (GE Life Sciences™). To prepare the surface, CM5 chips (GE Life Sciences™) were first activated with a 5-minute injection (30 μL min⁻¹) of a mixture of EDC/NHS (GE Life Sciences™) followed by injection of 100 μg mL⁻¹ LEKTI D5 Fab fusion (UCB) in acetate buffer, pH 5.0 (GE Life Sciences™) to achieve 80 RU immobilised LEKTI D5 Fab fusion on the chip surface. Finally, an injection of 1 M Ethanolamine hydrochloride-NaOH pH 8.5 was utilised to deactivate the surface. Increasing concentrations of human KLK5 from 0.32 to 32 nM in HBS-EP buffer (GE Life Sciences™) were then injected in the single cycle kinetics mode. Values resulting from buffer only injections were subtracted from those obtained for the KLK5 injections and kinetics determined by fitting to a 1:1 binding model in BIAcore evaluation software (GE Life Sciences™)
(§2) As reference, LEKTI D5 Fab fusion protein was immobilised to the chip surface prior to monitoring the interaction with human KLK5.

Active human KLK5 [2] = target: T1, Active human KLK5; assay: SPR, Biacore T200; LEKTI D5 Fab fusion immobilised on CM5 chip, human KLK5 injected 0.32-32 nM, single cycle kinetics, 1:1 model
Procedure: as §1, §2

Active human KLK5 [3] = target: T1, Active human KLK5; assay: SPR; antibody 10236 gL6gH12 captured on anti-human Fc and loaded with human KLK5, LEKTI D5 Fab fusion injected, 1:1 model; KLK5 in complex with 10236 gL6gH12
Procedure: (§3) The experimental conditions described in example 5 were used with the exception that an anti-human Fc chip surface was prepared, and the results are reported in Table 6.

Active human KLK5 [4] = target: T1, Active human KLK5; assay: SPR, Biacore; rabbit antibody 10236 captured on anti-rabbit Fc and saturated with 20 nM human KLK5, LEKTI D5 Fab fusion injected 30 pM-100 nM, 1:1 model; KLK5 in complex with 10236
Procedure: 20 nM of human KLK5 was then injected until the surface reached saturation. LEKTI D5 Fab fusion protein (generated as described in example 1) was then injected at concentrations between 30 pM and 100 nM. Values from buffer only injections were first subtracted from those obtained with the analytes before fitting to a 1:1 binding kinetic model in Biacore™ evaluation software (GE Life Sciences™)

Active human KLK5 [5] = target: T1, Active human KLK5; assay: SPR, Biacore T200; LEKTI D5 Fab fusion immobilised on CM5 chip, human KLK5 injected 0.32-32 nM, single cycle kinetics, 1:1 model; human KLK5 alone, no antibody 10236; LEKTI D5 Fab fusion immobilised on the chip
Procedure: as §1, §2

Active human KLK5 [6] = target: T1, Active human KLK5; assay: SPR; antibody 10236 gL6gH12 captured on anti-human Fc and loaded with human KLK5, LEKTI D5 Fab fusion injected, 1:1 model; KLK5 in complex with 10236 gL6gH12; KLK5 already in complex with antibody 10236 gL6gH12
Procedure: as §3

B1: LEKTI D5 Fab fusion protein (other)
heavy: EVQLLESGGGLVQPGGSLRLSCAVSGIDLSNYAINWVRQAPGKGLEWIGIIWASGTTFYATWAKGRFTISRDNSGGGGSGGGGSREIVKLCSQYQNQAKNGILFCTRENDPIRGPDGKMHGNLCSMCQAYFQAENEEKKKAEARARSGGGGGGGGSKNTVYLQMNSLRAEDTAVYYCARTVPGYSTAPYFDLWGQGTLVTVSSASTKGPSVFPLAPSSKSTSGGTAALGCLVKDYFPEPVTVSWNSGALTSGVHTFPAVLQSSGLYSLSSVVTVPSSSLGTQTYICNVNHKPSNTKVDKKVEPKSCHHHHHHHHHH
light: DIQMTQSPSSVSASVGDRVTITCQSSPSVWSNFLSWYQQKPGKAPKLLIYEASKLTSGVPSRFSGSGSGTDFTLTISSLQPEDFATYYCGGGYSSISDTTFGGGTKVEIKRTVAAPSVFIFPPSDEQLKSGTASVVCLLNNFYPREAKVQWKVDNALQSGNSQESVTEQDSKDSTYSLSSTLTLSKADYEKHKVYACEVTHQGLSSPVTKSFNRGEC
notes: the Fab itself is specific for albumin; also called Human LEKTI D5 Fab fusion protein
koff (Active human KLK5 [1]): 2.3e-05 s⁻¹
kon (Active human KLK5 [1]): 570000 M⁻¹ s⁻¹
koff (Active human KLK5 [2]): 2.3e-05 s⁻¹
kon (Active human KLK5 [2]): 570000 M⁻¹ s⁻¹
koff (Active human KLK5 [3]): 0.0016 s⁻¹
Kd (Active human KLK5 [4]): 120 nM
koff (Active human KLK5 [4]): 0.0073 s⁻¹
kon (Active human KLK5 [4]): 59000 M⁻¹ s⁻¹
Kd (Active human KLK5 [5]): 0.04 nM
Kd (Active human KLK5 [6]): 540 nM
